How the values were obtained:
[1] = molecular target: T1, hCD3d-his, Human CD3 delta Protein with His Tag (Acro Biosystems, CDD-H5224) (Human, UniProt P04234 22-105); assay: ELISA, plate coated with human CD3d-his at 1 µg/mL, anti-human IgG Fc-HRP [F]
T1 construct: Bought protein; also called monomeric CD3D; not shown: His Tag
Protocol: (§1) ELISA assays were conducted as briefly described: CD3 proteins were coated onto ELISA plates at 1 μg/mL; testing antibodies OKT3 and PR006364 (A1-HCAb) were diluted from 2 μg/mL to 8 different concentrations by 3-fold serial dilution, or testing antibodies PR006370 (SP34) and PR010991 (3G11-HCAb) were diluted from 100 nM to 11 different concentrations by 2-fold serial dilution; secondary antibody (anti-human IgG Fc-HRP) was used to detect PR006364, PR006370 and PR010991, and secondary antibody (anti-mouse IgG Fc-HRP) was used to detect OKT3 binding signal. The absorption signal at 450 nm (OD450) was recorded by plate reader (Molecular Devices, SpectraMax), and the data were processed and non-linear curve fitting analyzed by GraphPad Prism 8.

[2] = molecular target: T2, hCD3e-his, Human CD3 epsilon Protein with His Tag (Acro Biosystems, CDE-H5223) (Human, UniProt P07766 23-126); assay: ELISA, plate coated with human CD3e-his at 1 µg/mL, anti-human IgG Fc-HRP [E]
T2 construct: Bought protein; also called human CD3E monomeric protein; monomeric CD3E; not shown: His Tag
Protocol: as §1

[3] = molecular target: T3, hCD3e&g-his, Human CD3 epsilon & CD3 gamma Heterodimer Protein with His Tag (Acro Biosystems, CDG-H52W5) (Human, UniProt P07766 23-126; P09693 23-116); assay: ELISA, plate coated with human CD3e&g-his at 1 µg/mL, anti-human IgG Fc-HRP [D]
T3 construct: Bought protein; also called human CD3E&G heterodimer protein; not shown: His Tag fused to C-terminus of CD3 epsilon chain
T3 sequence (P09693 23-116, one chain of several): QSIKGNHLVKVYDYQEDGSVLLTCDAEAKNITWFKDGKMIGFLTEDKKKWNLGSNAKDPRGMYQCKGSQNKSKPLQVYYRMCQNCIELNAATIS
Protocol: as §1

[4] = molecular target: T4, hCD3e&d-his, Human CD3 epsilon & CD3 delta Heterodimer Protein with His Tag (Acro Biosystems, CDD-H52W1) (Human, UniProt P07766 23-126; P04234 22-105); assay: ELISA, plate coated with human CD3e&d-his at 1 µg/mL, anti-human IgG Fc-HRP [B]
T4 construct: Bought protein; also called human CD3E&D heterodimer protein; not shown: His Tag fused to C-terminus of CD3 epsilon chain
Protocol: as §1

[5] = molecular target: T5, cynoCD3e&d-his, Cynomolgus CD3 epsilon & CD3 delta Heterodimer Protein (Acro Biosystems, CDD-C52W4) (Cynomolgus, UniProt Q95LI5 22-117; Q95LI8 22-105); assay: ELISA, plate coated with cyno CD3e&d-his at 1 µg/mL, anti-human IgG Fc-HRP [C]
T5 construct: Bought protein; also called cynomolgus CD3E&D heterodimer protein; not shown: His Tag fused to C-terminus of CD3 epsilon chain; Flag Tag fused to C-terminus of CD3 delta chain
T5 sequence (Q95LI5 22-117, stated change not applied, chain 1 of 2): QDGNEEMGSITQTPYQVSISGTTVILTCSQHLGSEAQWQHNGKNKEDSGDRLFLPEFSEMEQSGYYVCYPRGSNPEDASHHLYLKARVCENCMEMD
T5 sequence (Q95LI8 22-105, stated change not applied, chain 2 of 2): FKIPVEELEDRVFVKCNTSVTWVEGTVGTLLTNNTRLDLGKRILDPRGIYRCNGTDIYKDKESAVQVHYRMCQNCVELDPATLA
Protocol: as §1

[6] = molecular target: T6, Biotinylated cynomolgus CD3e&d protein (Acro Biosystems, CDD-C82W6) (cynomolgus, UniProt Q95LI5 22-117; Q95LI8 22-105, biotinylated protein; chain and site not stated); assay: BLI (Octet RED96e), biotinylated antigen on SA biosensors, antibody 1.5-24 nM
T6 construct: Bought protein loaded on SA Octet biosensors
T6 sequence (Q95LI5 22-117, chain 1 of 2): as the sequence (Q95LI5 22-117, stated change not applied, chain 1 of 2) above
T6 sequence (Q95LI8 22-105, chain 2 of 2): as the sequence (Q95LI8 22-105, stated change not applied, chain 2 of 2) above
Protocol: (§2) To determine the binding affinities of anti-CD3 antibodies to human or cynomolgus monkey CD3e&d heterodimer proteins, bio-layer interferometry (BLI) assays were carried out by using Octet® RED96e.
(§3) Biotinylated human CD3e&d protein (Acro Biosystems, CDD-H82W6) or biotinylated cynomolgus CD3e&d protein (Acro Biosystems, CDD-C82W6) was first loaded onto the surface of SA Octet biosensors (Sartorius, 18-5019) to reach capture levels between 0.5-0.8 nm. The loaded biosensors were then dipped in wells containing 2-fold serial dilutions of testing antibodies to detect association signals, followed by dissociation steps in wells containing kinetic buffer. The association phase was 180 seconds, and the dissociation phase was 900 seconds. The sensorgrams were recorded, and the reference signals were subtracted before curve fitting using ForteBio Data Analysis 11.0 software. Association rates (kon) and dissociation rates (koff) were calculated using a simple one-to-one Langmuir binding model. The equilibrium dissociation constant (KD) was calculated as the ratio of koff/kon.

[7] = molecular target: T7, Biotinylated human CD3e&d protein (Acro Biosystems, CDD-H82W6) (human, UniProt P07766 23-126; P04234 22-105, biotinylated protein; chain and site not stated); assay: as above
T7 construct: Bought protein loaded on SA Octet biosensors; also called human CD3 protein
Protocol: as §2, §3

[8] = molecular target: T8, CD3 on T cells in cynomolgus monkey PBMCs (cynomolgus monkey, UniProt Q95LI5 22-198; Q95LI8 22-171; Q95LI7 23-181); assay: FACS on cynomolgus monkey PBMCs, 2-fold serial dilution from 200 nM [B]
T8 construct: whole, on cells
T8 sequence (Q95LI5 22-198, chain 1 of 3): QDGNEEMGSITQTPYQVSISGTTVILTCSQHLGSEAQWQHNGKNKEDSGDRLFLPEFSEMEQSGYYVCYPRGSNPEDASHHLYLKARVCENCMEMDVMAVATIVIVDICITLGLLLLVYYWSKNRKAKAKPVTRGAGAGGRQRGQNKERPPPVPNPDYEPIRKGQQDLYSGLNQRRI
T8 sequence (Q95LI8 22-171, chain 2 of 3): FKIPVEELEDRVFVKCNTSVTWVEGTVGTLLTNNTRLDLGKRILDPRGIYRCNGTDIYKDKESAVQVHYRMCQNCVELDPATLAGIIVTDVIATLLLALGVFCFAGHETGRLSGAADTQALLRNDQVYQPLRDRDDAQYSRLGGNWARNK
T8 sequence (Q95LI7 23-181, chain 3 of 3): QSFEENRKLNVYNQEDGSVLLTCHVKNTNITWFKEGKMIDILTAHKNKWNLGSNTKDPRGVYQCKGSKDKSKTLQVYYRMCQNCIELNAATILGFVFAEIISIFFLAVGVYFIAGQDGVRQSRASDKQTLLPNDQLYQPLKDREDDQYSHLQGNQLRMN
Protocol: (§4) The cross reactivity to cynomolgus monkey for 3G11-HCAb (PR010991) and derived B7H4xCD3 PR008551 was evaluated by assays of binding activity to cynomolgus monkey PBMCs by FACS method and T cell mediated cytotoxicity with cynomolgus monkey PBMCs by RTCA method. In this example, Anti-CD3/TCR HCAb PR006361 derived from patent WO2016180982A1 and its derived B7H4xCD3 PR006001 were used as control antibodies. These antibodies are generated as described in Example 8.
(§5) Cynomolgus monkey PBMCs were isolated from 10 mL fresh cynomolgus monkey blood using Ficoll Paque Plus (Cytiva 17-1440-02) following the vendor's instructions. The recombinant antibodies were diluted from 200 nM to 11 different concentrations by 2-fold serial dilution. The diluted samples were incubated with cynomolgus monkey PBMCs for 1 hour, and then the secondary antibody (Alexa Fluor®488 AffinityPure Goat Anti-Human IgG (Fcγ Fragment Specific), Jackson ImmunoResearch, 109-545-098) was added and incubated for 1 hour. The cells were washed twice with staining buffer and subjected to flow cytometry. The data were processed by FlowJo v10 (FlowJo, LLC) and non-linear curve fitting analyzed by GraphPad Prism 8.

[9] = molecular target: T8, CD3 on T cells in cynomolgus monkey …; assay: FACS on cynomolgus monkey PBMCs, 2-fold serial dilution from 200 nM [A]
Protocol: as §4, §5

[10] = molecular target: T6, Biotinylated cynomolgus CD3e&d protein …; assay: BLI (Octet RED96e), biotinylated antigen on SA biosensors
Protocol: as §2, §3

[11] = molecular target: T7, Biotinylated human CD3e&d protein (Acro …); assay: BLI (Octet RED96e), biotinylated antigen on SA biosensors, antibody 0.375-12 nM
Protocol: as §2, §3

[12] = molecular target: T9, CD3/TCR complex on Jurkat cells (ATCC, TIB-152) and Jurkat-NFAT-Luc reporter cells (human, UniProt P07766 23-207; P04234 22-171; P09693 23-182; P20963 22-164); assay: FACS on Jurkat cells, purified antibody [A]
T9 construct: whole, on cells; also called CD3/TCR-positive Jurkat cells; TCR/CD3 complex
T9 sequence (P09693 23-182, chain 3 of 2): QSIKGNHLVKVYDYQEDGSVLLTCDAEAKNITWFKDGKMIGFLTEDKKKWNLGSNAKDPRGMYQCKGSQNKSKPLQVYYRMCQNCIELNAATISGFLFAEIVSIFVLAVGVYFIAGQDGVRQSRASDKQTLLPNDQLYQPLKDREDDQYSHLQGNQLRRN
T9 sequence (P20963 22-164, chain 4 of 2): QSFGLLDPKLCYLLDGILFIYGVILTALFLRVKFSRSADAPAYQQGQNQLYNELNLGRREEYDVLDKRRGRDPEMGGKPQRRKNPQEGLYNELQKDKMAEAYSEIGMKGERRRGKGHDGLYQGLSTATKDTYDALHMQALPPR
Protocol: The binding activities to target cells for the supernatants A1-monoFc (PR005860) and E2-monoFc (PR005861) were evaluated by FACS. The supernatants of the recombinant antibodies (i.e. A1-monoFc, E2-monoFc) were diluted from bulk solution to 8 different concentrations by 3-fold serial dilution. […] The cells were washed twice with staining buffer and subjected to flow cytometry. The data were processed by FlowJo v10 (FlowJo, LLC) and non-linear curve fitting analyzed by GraphPad Prism 8.
The binding activities to Jurkat and J.RT3-T3.5 cells for purified A1-HCAb (PR006364), E2-HCAb (PR006365) were determined by FACS, following the method described in Example 2. As shown in (A) and (B of FIG. 8, PR006364 and PR006365 can bind to Jurkat cells but not to J.RT3-T3.5 cells, which is consistent with the result in FIG. 1.

human CD3e&d-llamaFc = molecular target: T10, human CD3e&d-llamaFc; assay: ELISA, plate coated with human CD3e&d-llamaFc at 1 µg/mL, anti-human IgG Fc-HRP [A]
T10 construct: also called hCD3e&d-llamaFc; Human CD3 epsilon & CD3 delta Heterodimer Protein fused with Llama Fc (Acro Biosystems, CDD-H5258); not shown: The llama Fc, any linker to it, and which chain or chains carry it
T10 epsilon: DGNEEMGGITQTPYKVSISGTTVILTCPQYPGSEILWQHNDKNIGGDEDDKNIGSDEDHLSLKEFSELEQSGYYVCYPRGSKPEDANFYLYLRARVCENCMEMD
T10 delta: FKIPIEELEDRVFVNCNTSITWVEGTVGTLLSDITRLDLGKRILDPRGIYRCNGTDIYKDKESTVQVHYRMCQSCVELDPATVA
Protocol: as §1

[13] = molecular target: human CD3E&D heterodimer protein (construct not specified; FIG. 9A and FIG. 12) (human, UniProt P07766 23-126; P04234 22-105); assay: ELISA on coated human CD3e&d heterodimer protein (construct not named on the sheet)

B1: PR010991, anti-CD3 3G11-HCAb hIgG1(C220S, AAA) (antibody, V domains shown)
VH: RVHLAESGGGLVQAGGSLRLSCAASGSRLNDNAMAWFRQAPGKEREFVGSIFWTGGNTYYADAVKGRLTISRDNAKNALYLQMNSLKPEDTAVYYCAASRVVWYYCSGYGCSRAGDYVYWGQGTQVTVSS
notes: Heavy-chain-only antibody, human IgG1 Fc (C220S, L234A, L235A, G237A)
B1: no binding (tested: 100 nM) [1]; no binding (tested: 100 nM) [2]; no binding (tested: 100 nM) [3]. For the same binder, the “EC50 (read off the curve)” value [4] was ~0.9 nM, the “EC50 (read off the curve)” value [5] was ~2 nM and the Kd [6] was < 0.001 nM. The koff [6] was < 1e-07 s⁻¹, the kon [6] was 708000 M⁻¹ s⁻¹ and the Kd [7] was < 0.001 nM. The koff [7] was < 1e-07 s⁻¹ and the kon [7] was 906000 M⁻¹ s⁻¹.

B2: PR006001, anti-B7H4xCD3 VH(PR006361)-Fc-scFv(PR003366), hIgG1(dCH1, KiH, LALA) (bispecific antibody)
chain 1: not shown
chain 2: EIVMTQSPASLSVSPGERATLSCRASQSVSSNLAWYQQKPGQAPRLLIYGASTRATGIPARVSGGGSGTEFTLTISSLQSEDFAVYYCQQYKNWPFTFGPGTKLEIKGGGGSGGGGSGGGGSGGGGSQVQLVQSGAEVKKPGSSMRVSCKASEDTFSSYAISWVRQAPGQGLEWMGGTAPIFGTTNYAQKFQGRVTITADKSTSTAYMELSSLRSEDTAVYYCARGGPYFDYWGQGTLVTVSSASEPKSSDKTHTCPPCPAPEAAGGPSVFLFPPKPKDTLMISRTPEVTCVVVDVSHEDPEVKFNWYVDGVEVHNAKTKPREEQYNSTYRVVSVLTVLHQDWLNGKEYKCKVSNKALPAPIEKTISKAKGQPREPQVCTLPPSREEMTKNQVSLSCAVKGFYPSDIAVEWESNGQPENNYKTTPPVLDSDGSFFLVSKLTVDKSRWQQGNVFSCSVMHEALHNHYTQKSLSLSPGK
notes: Control bispecific; anti-CD3 VH-Fc chain and anti-B7H4 scFv-Fc chain
B2: no binding (tested: 200 nM) [8].

B3: PR006361, anti-CD3/TCR HCAb hIgG1(AAG) from WO2016180982A1 (antibody, V domains shown)
VH: EVQLVESGGGPVQAGGSLRLSCAASGRTYRGYSMGWFRQAPGKEREFVAAIVWSGGNTYYEDSVKGRFTISRDNAKNTMYLQMTSLKPEDSATYYCAAKIRPYIFKIAGQYDYWGQGTQVTVSS
notes: Control heavy-chain-only antibody from prior art; C220S and AAG mutations
B3: no binding (tested: 200 nM) [9]; no binding (tested: 12.5-200 nM) [10].

B4: PR006364, anti-CD3 A1-HCAb hIgG1(C220S, AAG) (antibody, V domains shown)
VH: RIRLVESGGGLVQAGGSLRLSCAASGRTSGIPAMAWFRQAPGKEREFVAMAWSGGGTIYGDSVKNRFTISRDNTQNTIFLQMNSLKPEDTALYYCAAGRSTSNRADQYNYWGQGTQVTVSS
notes: Heavy-chain-only antibody, VHH fused to conventional human IgG1 Fc (C220S, L234A, L235A, P329G)
Binder B4 has a Kd [11] of 0.0342 nM, a koff [11] of 2.49e-05 s⁻¹ and a kon [11] of 727000 M⁻¹ s⁻¹. The “EC50 (read off the curve)” value [12] was ~2 nM, the “EC50 (read off the curve)” value (human CD3e&d-llamaFc) was ~0.03 µg/mL and the “EC50 (read off the curve)” value [13] was ~0.7 nM.

B5: PR006365, anti-CD3 E2-HCAb hIgG1(C220S, AAG) (antibody, V domains shown)
VH: EVQLVESGGGLVQAGGSLRLSCAASGRTNGIPAMAWFRQAPGKEREFVAMAWSGGGTIYGDSVKNRFTISRNNAQNTISLQMSSLRPEDTALYFCAAGRTTSNKADHYNYWGQGTQVTVSS
notes: Heavy-chain-only antibody, human IgG1 Fc (C220S, L234A, L235A, P329G)
For B5, the “EC50 (read off the curve)” value [12] was ~9 nM.
